Patent publication US20240173442A1 (Hoffmann-La Roche, published 2024)

T1: carcinoembryonic antigen (CEA) (human, UniProt P06731 35-685)
T1 construct: whole, on cells; also called CEACAM5; Carcinoembryonic antigen-related cell adhesion molecule 5
T1 sequence (looked up): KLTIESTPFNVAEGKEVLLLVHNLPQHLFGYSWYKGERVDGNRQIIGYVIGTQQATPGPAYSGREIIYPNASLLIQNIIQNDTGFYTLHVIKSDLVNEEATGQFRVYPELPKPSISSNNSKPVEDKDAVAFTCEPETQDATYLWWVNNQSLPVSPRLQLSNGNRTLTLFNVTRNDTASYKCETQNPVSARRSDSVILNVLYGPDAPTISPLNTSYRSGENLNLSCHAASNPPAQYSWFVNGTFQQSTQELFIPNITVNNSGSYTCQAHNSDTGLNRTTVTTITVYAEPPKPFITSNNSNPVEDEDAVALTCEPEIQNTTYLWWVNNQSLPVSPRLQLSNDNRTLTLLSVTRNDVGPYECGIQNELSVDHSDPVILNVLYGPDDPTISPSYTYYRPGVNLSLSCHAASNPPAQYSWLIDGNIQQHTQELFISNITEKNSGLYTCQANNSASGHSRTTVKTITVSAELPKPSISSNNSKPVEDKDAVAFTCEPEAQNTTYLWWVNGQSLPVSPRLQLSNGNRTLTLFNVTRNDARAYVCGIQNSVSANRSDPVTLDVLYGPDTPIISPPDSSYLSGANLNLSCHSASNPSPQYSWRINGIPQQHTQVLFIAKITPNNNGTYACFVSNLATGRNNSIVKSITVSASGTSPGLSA


Molecular target: T1, carcinoembryonic antigen (CEA)
Test: FACS on MKN-45 cells, detection with anti-huIgG(H+L)-Alexa488
Description: MKN-45 cells were detached from the culture bottle using Trypsin and were counted using a Casy cell counter. After pelleting at 4° C., 300 g the cells were resuspended in FACS Buffer (2.5% FCS in PBS), adjusted to 2.0E+06 cells/mL dispensed to 96-well PP V-bottom-Platte (25 μL/well=5.0E+04Zellen/well).
The CEA specific SPLIT antibodies (P1AF0712 or P1AF0713 respectively) were adjusted to 40 μg/mL in FACS buffer, resulting in a final concentration of 10 μg/mL. Both antibodies were added to the cells either separated followed by buffer or combined and incubated at 4° C. for 1 h. The cells were then washed twice in FACS buffer. After washing, the cells were resuspended in 50 μL FACS-buffer containing secondary antibody (<huIgG(H+L)>-Alexa488, c=10 μg/mL) and incubated 1h at 4° C. The cells were then washed twice in FACS buffer and resuspended in 70 μl/well FACS buffer for measurement using a FACS Canto (BD, Pharmingen).

Row | EC50 [µg/mL] | Binder
1 | 2.7 | P1AF0712 (CEA-split-DOTA-VL, CH1A1A) (antibody, human IgG1, kappa, L234A L235A, also called CEA specific SPLIT antibody; P6_A) heavy 1: not shown heavy 2: QVQLVQSGAEVKKPGASVKVSCKASGYTFTEFGMNWVRQAPGQGLEWMGWINTKTGEATYVEEFKGRVTFTTDTSTSTAYMELRSLRSDDTAVYYCARWDFAYYVEAMDYWGQGTTVTVSSASTKGPSVFPLAPSSKSTSGGTAALGCLVKDYFPEPVTVSWNSGALTSGVHTFPAVLQSSGLYSLSSVVTVPSSSLGTQTYICNVNHKPSNTKVDKKVEPKSCDKTHTCPPCPAPEAAGGPSVFLFPPKPKDTLMISRTPEVTCVVVDVSHEDPEVKFNWYVDGVEVHNAKTKPREEQYNSTYRVVSVLTVLHQDWLNGKEYKCKVSNKALGAPIEKTISKAKGQPREPQVCTLPPSRDELTKNQVSLSCAVKGFYPSDIAVEWESNGQPENNYKTTPPVLDSDGSFFLVSKLTVDKSRWQQGNVFSCSVMHEALHNHYTQKSLSLSPGGGGGSGGGGSGGGGSGGGGSQAVVIQESALTTPPGETVTLTCGSSTGAVTASNYANWVQEKPDHLFTGLIGGHNNRPPGVPARFSGSLIGDKAALTIAGTQTEDEAIYFCALWYSDHWVIGGGTKLTVL light: DIQMTQSPSSLSASVGDRVTITCKASAAVGTYVAWYQQKPGKAPKLLIYSASYRKRGVPSRFSGSGSGTDFTLTISSLQPEDFATYYCHQYYTYPLFTFGQGTKLEIKRTVAAPSVFIFPPSDEQLKSGTASVVCLLNNFYPREAKVQWKVDNALQSGNSQESVTEQDSKDSTYSLSSTLTLSKADYEKHKVYACEVTHQGLSSPVTKSFNRGEC
2 | 2.3 | P1AF0713 (CEA-split-DOTA-VH-AST, CH1A1A) (antibody, human IgG1, kappa, L234A L235A, also called CEA specific SPLIT antibody; P6_B) heavy 1: QVQLVQSGAEVKKPGASVKVSCKASGYTFTEFGMNWVRQAPGQGLEWMGWINTKTGEATYVEEFKGRVTFTTDTSTSTAYMELRSLRSDDTAVYYCARWDFAYYVEAMDYWGQGTTVTVSSASTKGPSVFPLAPSSKSTSGGTAALGCLVKDYFPEPVTVSWNSGALTSGVHTFPAVLQSSGLYSLSSVVTVPSSSLGTQTYICNVNHKPSNTKVDKKVEPKSCDKTHTCPPCPAPEAAGGPSVFLFPPKPKDTLMISRTPEVTCVVVDVSHEDPEVKFNWYVDGVEVHNAKTKPREEQYNSTYRVVSVLTVLHQDWLNGKEYKCKVSNKALGAPIEKTISKAKGQPREPQVCTLPPSRDELTKNQVSLSCAVKGFYPSDIAVEWESNGQPENNYKTTPPVLDSDGSFFLVSKLTVDKSRWQQGNVFSCSVMHEALHNHYTQKSLSLSPG heavy 2: not shown light: DIQMTQSPSSLSASVGDRVTITCKASAAVGTYVAWYQQKPGKAPKLLIYSASYRKRGVPSRFSGSGSGTDFTLTISSLQPEDFATYYCHQYYTYPLFTFGQGTKLEIKRTVAAPSVFIFPPSDEQLKSGTASVVCLLNNFYPREAKVQWKVDNALQSGNSQESVTEQDSKDSTYSLSSTLTLSKADYEKHKVYACEVTHQGLSSPVTKSFNRGEC
